Read-outs that look alike come from different tables or passages of the source.

This is an account of results in US20220195055A1 (SHANDONG BOAN BIOTECHNOLOGY, published 2022).

Assay [1] concerns the target T1, CD25 on cells (SU-DHL-1 target cells; PBMC) (UniProt P01589 22-272, limits assumed).
T1 sequence (looked up): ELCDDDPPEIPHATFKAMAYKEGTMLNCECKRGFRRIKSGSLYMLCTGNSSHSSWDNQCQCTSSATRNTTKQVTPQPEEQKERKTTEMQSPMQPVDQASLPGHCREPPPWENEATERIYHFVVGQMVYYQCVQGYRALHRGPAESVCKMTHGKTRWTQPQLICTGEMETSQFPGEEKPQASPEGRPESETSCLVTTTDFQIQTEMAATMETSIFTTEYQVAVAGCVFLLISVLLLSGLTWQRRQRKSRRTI
Put plainly: cell-based or functional assay.

Assay [2] deals with T2, CD25 protein (Sino Biological, 10165-H08H) (UniProt P01589 22-213).
T2 construct: Bought recombinant protein; It speaks elsewhere of human CD25; also called antigen CD25; IL-2Rα
T2 sequence (looked up): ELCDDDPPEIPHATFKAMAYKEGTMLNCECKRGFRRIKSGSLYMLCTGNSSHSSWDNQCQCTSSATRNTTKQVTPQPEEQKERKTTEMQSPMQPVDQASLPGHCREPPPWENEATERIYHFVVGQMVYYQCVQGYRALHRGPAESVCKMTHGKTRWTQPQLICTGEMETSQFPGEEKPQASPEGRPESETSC
Put plainly: SPR (BIAcore 8K); antibody captured by anti-human IgG Fc, CD25 protein as analyte, 1:1 model. The method, then: Antibody binding kinetics uses BIAcore8K instrument based on surface plasmon resonance (SRP) technology to measure. Anti-human IgG antibody amino was coupled to a CMS biosensor chip by the GE anti Human IgG Fc amino coupling kit (GE, cat # BR-1008-39) to obtain approximately 1000 response units (RU). For kinetic measurements, the CD25 protein (Sino Biological, 10165-H08H) was diluted 2-fold continuously with HBS-EP+1×(GE, BR-1008-26) buffer, starting at 50 nM, being diluted 2-fold for 4 concentration gradients and setting 0 concentration. The antibody to be detected: 2 μg/ml, sample injection time 70 s, flow rate 5 μL/min, stable for 5 s; CD25 protein: binding for 60 s, flow rate 30 μL/min, dissociation for 450 s; regeneration: regeneration was performed for 30 s with 3M MgCl₂ buffer, Startup 3 times. The association constant (ka) and dissociation constant (kd) were calculated using a simple one-to-one Languir binding model (BIAcore Evaluation Software version 3.2), and the equilibrium dissociation constant (KD) was calculated by the ratio kd/ka.
A general note: In SPR one partner is held on a chip, and binding of the other changes the refractive index at the surface.

For assay [3], the target named is T2, CD25 protein (Sino Biological, …). Briefly: ELISA; CD25 protein coated in a dilution series, antibody at one fixed concentration, anti-human IgG/HRP. An excerpt:
(§1) The results are shown in FIG. 2A to FIG. 2E and Table 2 to Table 6.

The target of assay [4] is T1, CD25 on cells (SU-DHL-1 target cells; …). Briefly: cell-based or functional assay. This is another data set of the same source.
The target in assay [5] is T2, CD25 protein (Sino Biological, …). Put plainly: ELISA; CD25 protein coated in a dilution series, antibody at one fixed concentration, anti-human IgG/HRP.
Source text: as §1
This is another data set of the same source. For orientation: ELISA stands for enzyme-linked immunosorbent assay.

Assay [6] has the same target. Described as above.
Source text: as §1
The source holds these as a separate data set.

Assay [7] deals with T1, CD25 on cells (SU-DHL-1 target cells; …). Briefly: cell-based or functional assay. This is another data set of the same source.

B1: CD25Q14-BA443-IgG1 (antibody, V domains shown)
VH: EVQLVQSGAEVKKPGESLKISCKGSGYSFSNYWIGWVRQMPGKGLEWMGIISPGDSTTKYSPSFQGQVTFSADKSTSTAYLQWSSLQASDTAMYYCVRGPYYLDYWGQGTLVTVSS
VL: DIQMTQSPSTLSASVGDRVTITCRASQSVSGYLAWYQQKPGKAPKLLIYKTSSLESGVPSRFSGSGSGTDFTLTISSLQAEDVAVYYCQQYYSTPWTFGQGTKVEIKR
notes: IgG1 expressed in HEK293
B1: the “EC50 of simulated killing activity (Jurkat effector reporter cells, SU-DHL-1 target cells, luminescence)” value (“EC50 of simulated killing activity” below) in assay [1] was 360 ng/mL. In assay [2], the affinity, expressed as Kd, was 1.48 nM; the koff (as a rule, the first-order rate constant of dissociation) worked out at 0.000201 s⁻¹; the kon (as a rule, the second-order rate constant of association) amounted to 136000 M⁻¹ s⁻¹. Also, it took 1.06 ng/mL to reach a half-maximal effect in assay [3] (EC50).

B2: CD25Q14-BA458-IgG1 (antibody, V domains shown)
VH: EVQLVQSGAEVKKPGESLKISCKGSGYSFSNYWIGWVRQMPGKGLEWMGIISPGDSTTKYSPSFQGQVTFSADKSTSTAYLQWSSLQASDTAMYYCVRGPYYLDYWGQGTLVTVSS
VL: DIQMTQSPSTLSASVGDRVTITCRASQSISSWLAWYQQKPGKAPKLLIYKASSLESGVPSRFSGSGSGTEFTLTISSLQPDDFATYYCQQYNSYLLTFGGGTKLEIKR
notes: IgG1 expressed in HEK293
Regarding B2, in assay [1], the “EC50 of simulated killing activity” value is 266 ng/mL. Moreover, in assay [2], the dissociation constant (Kd) (as a rule, a measure of binding affinity in units of concentration) is 0.596 nM; the koff was determined as 0.000216 s⁻¹; the kon worked out at 362000 M⁻¹ s⁻¹. In assay [3], the EC50 (in general, the concentration at which the effect is half-maximal) worked out at 1 ng/mL.

B3: CD25Q11-BA428-IgG1 (antibody, V domains shown)
VH: QVQLVQSGAEVKKPGESLKISCKGSGYSFTNYWIVWVRQMPGKGLEWMGIISPGDSTTRYSPSFQGQVTFSADKSISTAYLQWSSLKASDTAMYYCAIGPYYLEYWGQGTLVTVSS
VL: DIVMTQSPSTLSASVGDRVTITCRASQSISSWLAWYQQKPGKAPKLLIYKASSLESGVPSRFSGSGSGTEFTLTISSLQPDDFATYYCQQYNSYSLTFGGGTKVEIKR
notes: IgG1 expressed in HEK293
With B3, in assay [4], the “EC50 of simulated killing activity” value was 217 ng/mL. In assay [2], this molecule displayed a Kd of 0.379 nM, a koff of 0.00021 s⁻¹ and a kon of 555000 M⁻¹ s⁻¹. In addition, in assay [3], the EC50 is 0.597 ng/mL.

B4: CD25Q14-BA448-IgG1 (antibody, V domains shown)
VH: EVQLVQSGAEVKKPGESLKISCKGSGYNFANYWIVWVRQMPGKGLEWMGITYPDDSETRYSPSFQGQVTFSADKSISTAYLQWSSLKASDTAMYYCTRGPYYSDYWGQGTLVTVSS
VL: DIQMTQSPSTLSASVGDRVTITCRASQSISSWLAWYQQKPGKAPKLLIYKASSLESGVPSRFSGSGSGTEFTLTISSLQPDDFATYYCQQYDRFSWTFGQGTKVEIKR
notes: IgG1; The VH is copied as printed. 'YVVGQG' near its end may be a misprint of 'YWGQG'
For the molecule B4, in assay [2], the affinity, expressed as Kd, was 0.904 nM; the koff was 0.000531 s⁻¹; the kon was 587000 M⁻¹ s⁻¹. Moreover, the EC50 in assay [3] came to 2.68 ng/mL.

B5: CD25Q14-CA705-IgG1 (antibody, V domains shown)
VH: EVQLVQSGAEVKKPGESLKISCKGSGYSFANYWIVWVRQMPGKGLEWMGIIYPDDSETRYSPSFQGQVTFSADKSISTAYLQWSSLKASDTAMYYCTRGPYYSDYWGQGTLVTVSS
VL: DIQMTQSPSTLSASVGDRVSITCRASQSIGSWLAWYQQKPGKAPKLLIFEASNLESGVPSRFSGSGSGTEFTLTISNLQPDDFATYYCQQYNSYSLTFGGGTKVEIKR
notes: IgG1 expressed in HEK293
B5: the “EC50 of simulated killing activity” value in assay [4] is 409 ng/mL. In assay [2], this molecule returned a Kd of 1.97 nM, a koff of 0.000752 s⁻¹ and a kon of 381000 M⁻¹ s⁻¹. In assay [5], a half-maximal effect (EC50) was put at 4.77 ng/mL.

B6: CD25Q3-BA125-IgG1 (antibody, V domains shown)
VH: EVQLVQSGAEVKKPGESLKISCKGSGYSFANYWIVWVRQMPGKGLEWMGIIYPDDSETRYSPSFQGQVTFSADKSISTAYLQWSSLKASDTAMYYCTRGPYYSDYWGQGTLVTVSS
VL: DIQMTQSPSTLSASVGDRVTITCRASQIISGYLAWYQQKPGKAPKLLIYKASSLESGVPSRFSGSGSGAEFTLTISSLQPDDFATYYCQQYNSYTWTFGQGTKVEIKR
notes: IgG1; also called CD25Q2-BA125
B6: the “EC50 of simulated killing activity” value in assay [4] was 251 ng/mL. In addition, in assay [2], the Kd worked out at 0.431 nM, the koff was 0.000301 s⁻¹ and the kon amounted to 699000 M⁻¹ s⁻¹. In addition, in assay [6], the EC50 came to 1.61 ng/mL.

B7: CD25Q11-BA406-IgG1 (antibody, V domains shown)
VH: EVQLVQSGAEVKKPGESLKISCKGSGYSFTNYWIAWVRQMPGKGLEWMGIIYPGDSVTRYSPSFQGQVTISADKSINTAYLQWSSLRASDTAMYYCARGPYYFEYWGQGTLVTVSS
VL: DIVMTQSPSTLSASVGDRVTITCRASQSISSFLAWYQQKPGRAPELLIYKASTLESRVPSRFSGSGSGTEFTLTISSLQPEDFATYYCQQYKSFSWTVGQGTKVEIKR
notes: IgG1 expressed in HEK293
In assay [5], B7 registered an EC50 of 0.651 ng/mL.

B8: CD25Q11-CA36-IgG1 (antibody, V domains shown)
VH: QVQLVQSGAEVKQPGSSVKVSCKTSGGTFGSSAINWVRQAPGQGLEWMGRIIPIFGVSNFAQKFQGRVTITADKSTNTAYMELSSLRSEDTAVYYCARDGSGYDSNYWYFDLWGRGTLVTVSS
VL: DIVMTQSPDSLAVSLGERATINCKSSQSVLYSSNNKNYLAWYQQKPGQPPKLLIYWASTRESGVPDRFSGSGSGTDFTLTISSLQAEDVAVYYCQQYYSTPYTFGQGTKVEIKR
notes: IgG1 expressed in HEK293
For B8, in assay [2], the Kd was 1.61 nM, the koff came to 9.66e-05 s⁻¹ and the kon was 60200 M⁻¹ s⁻¹. Moreover, in assay [5], the EC50 is 2.41 ng/mL.

B9: CD25Q11-BA415-IgG1 (antibody, V domains shown)
VH: QVQLVQSGTEVKKPGESLKISCEGVGYSFTTYWIGWVRQMPGKGLEWMGIIYPGDSITRYSPSFQGQVTISADKSINTAYLQWSSLMASDTAMYYCVRGPHWGDYWGQGTLVTVSS
VL: DIQMTQSPSTLSASVGDRVTITCRASQSISTWLAWYQQKPGKAPKLLIYKASSLESGVPSRFSGSGSGTEFTLTISSLQPDDFAAYYCQQYSSYSWTFGQGTKVEIKR
notes: IgG1 expressed in HEK293
As for B9, the “EC50 of simulated killing activity” value in assay [1] is 233 ng/mL. In assay [2], this molecule gave a Kd of 0.614 nM, a koff of 0.000199 s⁻¹ and a kon of 323000 M⁻¹ s⁻¹. Also, the EC50 in assay [5] was determined as 0.941 ng/mL.

B10: CD25Q2-BA9-IgG1 (antibody, V domains shown)
VH: QVQLQQWGAGLLKPSETLSLTCAVYGGSFSGYYWSWIRQPPGKGLEWIGEIDHSGSTIYNPSLKSRVTISLDTSKNQFSLKLSSVTAADTALYYCARGEAFDIWGQGTMVTVSS
VL: DIVMTQSPSTLSASVGDRVTITCRASQSLRSYLAWYQQKPGKAPKLLIYKASSLESGVPSRFSGSGSGTEFTLTISSLQPDDFATYYCQQYNSYSWTFGQGTKVEIKR
notes: IgG1 expressed in HEK293; also called CD25Q-BA9-IgG1
For B10, the “EC50 of simulated killing activity” value in assay [4] was 236 ng/mL. In addition, in assay [7], the “% PSTAT5 in CD3 positive T cells of PBMC after IL2, with 10 µg/mL antibody” value (“% PSTAT5 in CD3 positive T cells of PBMC” for short) turned out to be 26.1%. In assay [2], binding was characterised by a dissociation constant (Kd) of 0.843 nM, the koff was found to be 0.000586 s⁻¹ and the kon was determined as 696000 M⁻¹ s⁻¹. The molecule further came in with an EC50 in assay [6] of 3.33 ng/mL.

B11: CD25Q11-BA402-IgG1 (antibody, V domains shown)
VH: QVQLVQSGAEVKKPGESLKISCKGSGYSFSNYWIAWVRQMPGKGLEWMGIIYPGDSATRYSPSFQGQVTISADKSINTAYLQWSSLRASDTAMYYCARGPYYFEYWGQGTLVTVSS
VL: DIVMTQSPSTLSASVGDRVTLTCRASQSISSYLAWYQQKPGKAPKLLIYKASTLESGVPSRFSGSGSGTEFTLTISSLQPDDFATYYCQHYNSYSVTFGGGTKVEIKR
notes: IgG1 expressed in HEK293
In the case of B11, the “EC50 of simulated killing activity” value in assay [4] is 443 ng/mL. Moreover, in assay [2], the Kd turned out to be 0.607 nM, the koff came to 0.000212 s⁻¹ and the kon turned out to be 350000 M⁻¹ s⁻¹. The midpoint of the response in assay [6], the EC50, lay at 0.674 ng/mL.

B12: CD25Q11-BA410-IgG1 (antibody, V domains shown)
VH: QVQLQQWGAGLLKPSETLSLTCAVYGGSFSGHYWSWIRQSPGKGLEWIGEIDHSGNAIYNPSLKSRVTISIDTSKNQFSLKLSSVTAADTAVYYCARGEAFDLWGQGTMVTVSS
VL: not shown
notes: IgG1 expressed in HEK293
Turning to B12, in assay [4], the “EC50 of simulated killing activity” value is 215 ng/mL. Further, the “% PSTAT5 in CD3 positive T cells of PBMC” value in assay [7] is 16.8%. Besides, in assay [2], the affinity, expressed as Kd, was 4.81 nM; the koff was 0.00674 s⁻¹; the kon is 1.4e+06 M⁻¹ s⁻¹. The EC50 in assay [5] worked out at 16.8 ng/mL.

B13: CD25Q11-BA422-IgG1 (antibody, V domains shown)
VH: QVQLVQSGAEVKKPGSSVKVSCKASGGTFSSSAISWVRQAPGQGLDWMGRIIPLLNIADYAQKFQGRVTFTADKSTNTAYMELSSLRSEDTAVYYCARDGSGYDSNYWYFDLWGRGTLVTVSS
VL: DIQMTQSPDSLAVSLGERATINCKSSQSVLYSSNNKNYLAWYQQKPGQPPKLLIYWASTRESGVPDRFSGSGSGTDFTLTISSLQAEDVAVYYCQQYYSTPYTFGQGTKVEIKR
notes: IgG1 expressed in HEK293
On to B13, for which, in assay [4], the “EC50 of simulated killing activity” value was 836 ng/mL. Further, the “% PSTAT5 in CD3 positive T cells of PBMC” value in assay [7] is 18.1%. Further, the EC50 in assay [3] was found to be 1.3 ng/mL.
